Each block holds one substance with its values, some of them ahead of it.
Tests used:
[1] = molecular target: KDR/flk-1 receptor on 293/KDR or PAE/KDR cells (UniProt P35968); test: cell-based or functional assay
[2] = molecular target: S-peptide fragment of bovine pancreatic ribonuclease A (bovine); test: cell-based or functional assay

MBS-modified S-protein, 40-fold molar excess of sulfo-MBS, sequence (P61823 47-150): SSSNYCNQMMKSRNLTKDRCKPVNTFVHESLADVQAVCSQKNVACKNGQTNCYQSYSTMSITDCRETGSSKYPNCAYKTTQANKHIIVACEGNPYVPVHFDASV
MBS-modified S-protein, 10-fold molar excess of sulfo-MBS, sequence (P61823 47-150): as above
MBS-modified S-protein, 2-fold molar excess of sulfo-MBS, sequence (P61823 47-150): as above
MBS-modified S-protein, 20-fold molar excess of sulfo-MBS, sequence (P61823 47-150): as above
S-protein fragment of bovine ribonuclease (Sigma), sequence (P61823 47-150): as above
Lip(Dox)-SP-FVEGF121 complex, sequence (P15692 other isoform, or with tags, fused parts or gaps): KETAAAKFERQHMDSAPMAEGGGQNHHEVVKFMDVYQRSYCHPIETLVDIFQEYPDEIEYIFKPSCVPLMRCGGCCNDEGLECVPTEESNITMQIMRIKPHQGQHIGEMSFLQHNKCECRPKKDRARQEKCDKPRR
Lip(Dox)-SP-FVEGF121 complex, sequence (P61823 47-150): as the sequence (P61823 47-150) above
KDR/flk-1 receptor on 293/KDR or PAE/KDR cells, sequence (P35968 20-1356 limits assumed): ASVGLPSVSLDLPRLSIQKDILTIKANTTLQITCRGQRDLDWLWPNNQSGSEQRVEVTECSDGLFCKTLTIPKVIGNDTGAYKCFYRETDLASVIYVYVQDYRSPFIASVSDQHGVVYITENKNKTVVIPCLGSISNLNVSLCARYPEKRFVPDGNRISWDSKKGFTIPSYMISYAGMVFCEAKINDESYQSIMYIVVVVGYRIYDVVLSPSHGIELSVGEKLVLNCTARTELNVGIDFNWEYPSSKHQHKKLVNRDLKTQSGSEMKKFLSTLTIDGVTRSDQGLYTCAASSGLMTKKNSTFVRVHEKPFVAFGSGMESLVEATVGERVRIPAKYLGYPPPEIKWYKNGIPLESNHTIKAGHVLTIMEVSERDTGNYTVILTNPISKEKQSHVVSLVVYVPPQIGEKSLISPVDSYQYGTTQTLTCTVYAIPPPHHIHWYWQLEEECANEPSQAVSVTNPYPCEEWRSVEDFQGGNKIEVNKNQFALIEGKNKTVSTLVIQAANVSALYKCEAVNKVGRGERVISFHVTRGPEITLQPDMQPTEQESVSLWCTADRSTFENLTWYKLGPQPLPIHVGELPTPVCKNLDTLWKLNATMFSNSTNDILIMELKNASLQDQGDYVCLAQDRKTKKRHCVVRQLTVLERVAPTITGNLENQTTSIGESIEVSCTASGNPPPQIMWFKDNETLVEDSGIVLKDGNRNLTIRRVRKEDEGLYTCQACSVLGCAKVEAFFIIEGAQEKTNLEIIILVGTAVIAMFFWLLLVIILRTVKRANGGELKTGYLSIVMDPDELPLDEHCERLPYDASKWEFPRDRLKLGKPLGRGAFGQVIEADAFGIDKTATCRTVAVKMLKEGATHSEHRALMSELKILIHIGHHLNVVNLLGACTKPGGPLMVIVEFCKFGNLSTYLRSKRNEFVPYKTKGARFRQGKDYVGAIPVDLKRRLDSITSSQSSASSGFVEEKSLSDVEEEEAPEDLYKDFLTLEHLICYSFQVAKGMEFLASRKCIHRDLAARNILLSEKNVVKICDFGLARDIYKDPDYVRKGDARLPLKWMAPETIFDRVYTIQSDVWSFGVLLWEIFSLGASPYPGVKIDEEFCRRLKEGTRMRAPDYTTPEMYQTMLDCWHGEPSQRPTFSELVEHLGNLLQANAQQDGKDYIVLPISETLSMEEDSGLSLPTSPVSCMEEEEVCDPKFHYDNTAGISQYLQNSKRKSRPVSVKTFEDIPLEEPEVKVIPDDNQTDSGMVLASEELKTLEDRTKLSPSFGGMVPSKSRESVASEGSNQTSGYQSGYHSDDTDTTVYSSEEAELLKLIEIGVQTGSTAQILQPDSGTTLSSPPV

Substance: MBS-modified S-protein, 2-fold molar excess of sulfo-MBS (from UniProt P61823 47-150)
Ribonuclease Activity (%), S-tag Rapid Assay Kit; SulphoMBS molar excess: 2 [2]: 57%

Substance: MBS-modified S-protein, 10-fold molar excess of sulfo-MBS (from UniProt P61823 47-150)
Ribonuclease Activity (%), S-tag Rapid Assay Kit; SulphoMBS molar excess: 10 [2]: 38%

Substance: MBS-modified S-protein, 20-fold molar excess of sulfo-MBS (from UniProt P61823 47-150)
Ribonuclease Activity (%), S-tag Rapid Assay Kit; SulphoMBS molar excess: 20 [2]: 36%

Substance: MBS-modified S-protein, 40-fold molar excess of sulfo-MBS (from UniProt P61823 47-150)
Ribonuclease Activity (%), S-tag Rapid Assay Kit; SulphoMBS molar excess: 40 [2]: 25%

The next lines start with the values.

IC50 of growth inhibition of 293/KDR cells [1]: 5 nM
Substance: Lip(Dox)-SP-FVEGF121 complex (from UniProt P15692 27-147; P61823 47-150)

Ribonuclease Activity (%), S-tag Rapid Assay Kit; SulphoMBS molar excess: none [2]: 100%
Substance: S-protein fragment of bovine ribonuclease (Sigma) (from UniProt P61823 47-150)
